Experimental data from article PMC6582314, “Ligands Exert Biased Activity to Regulate Sigma 1 Receptor Interactions With Cationic TRPA1, TRPV1, and TRPM8 Channels” (Frontiers in Pharmacology, 2019).

B1: histidine triad nucleotide-binding protein 1 (HINT1), murine, GST-free (natural protein, mouse, UniProt P70349 1-126, looked up)
chain: MADEIAKAQVAQPGGDTIFGKIIRKEIPAKIIFEDDRCLAFHDISPQAPTHFLVIPKKHISQISVADDDDESLLGHLMIVGKKCAADLGLKRGYRMVVNEGADGGQSVYHIHLHVLGGRQMNWPPG
notes: source: E. coli BL21 (KRX), purified (GStrap FF or HaloLink Resin, cleaved with ProTEV protease, ion exchange); not shown: GST, N-terminal, cleaved
B2: sigma 1 receptor (σ1R), full-length murine, GST-free (natural protein, mouse, UniProt O55242 1-223, looked up)
chain: MPWAAGRRWAWITLILTIIAVLIQAAWLWLGTQNFVFSREEIAQLARQYAGLDHELAFSRLIVELRRLHPGHVLPDEELQWVFVNAGGWMGAMCILHASLSEYVLLFGTALGSHGHSGRYWAEISDTIISGTFHQWKEGTTKSEVFYPGETVVHGPGEATALEWGPNTWMVEYGRGVIPSTLFFALADTFFSTQDYLTLFYTLRAYARGLRLELTTYLFGQDS
notes: sigma 1 receptor, mouse, GenBank AF004927, coding region of the full-length protein; 223 amino acids; also called type 1 sigma receptor; source: E. coli BL21 (KRX), purified (GStrap FF or HaloLink Resin, cleaved with ProTEV protease, ion exchange); not shown: GST, N-terminal, cleaved

Assays:
Settings in all cases: both partners purified
[1] = target: T1, TRPA1 N-terminal cytosolic region (aa 1-721), GST-tagged (mouse, UniProt Q8BLA8 1-721); test: pull-down; competition: immobilised TRP sequence with CaM or HINT1 and increasing concentrations of σ1R (up to 200 nM), 3 mM CaCl2; bound CaM or HINT1 by Western blot, relative to no σ1R
T1 construct: transient receptor potential ankyrin member 1, mouse, NP_808449, residues 1-721; Vector carries GST/HaloTag and a TEV site; also called TRPA1 N-terminus; TRPA1 N-terminal domain; source: E. coli BL21 (KRX), purified (GStrap FF or HaloLink Resin); not shown: GST, N-terminal, kept

[2] = target: T2, TRPM8 N-terminal cytosolic region (aa 1-639), GST-tagged (mouse, UniProt Q8R4D5 1-639); test: pull-down; TRP sequence (100 nM) covalently attached to NHS-activated Sepharose 4FF; prey 200 nM; 200 µL 50 mM Tris-HCl pH 7.5, 0.2% CHAPS, with 3 mM CaCl2; 30 min at RT, three washes; Western blot
T2 construct: transient receptor potential melastatin member 8, mouse, NP_599013, residues 1-639; also called TRPM8 N-terminus; source: E. coli BL21 (KRX), purified (GStrap FF or HaloLink Resin); not shown: GST, N-terminal, kept

[3] = target: T1, TRPA1 N-terminal cytosolic region (aa …); test: as above

Binder | binding result [1] | binding result [2] | binding result [3]
B1 | binds | binds | 
B2 |  | binds | binds
